According to article PMC3763537:

Tests used:
[1] = target: NprR(ΔHTH) (B. thuringiensis strain 407); test: dynamic light scattering
[2] = target: NprR(ΔHTH) (B. thuringiensis strain 407); test: SEC
[3] = target: NprR(ΔHTH) (B. thuringiensis strain 407); test: SEC-MALS
[4] = target: NprR(ΔHTH) (B. thuringiensis strain 407); test: crystal structure
[5] = target: NprR(ΔHTH) (B. thuringiensis strain 407); test: SEC; remark: listed apart in the source
[6] = target: NprR(ΔHTH) (B. thuringiensis strain 407); test: dynamic light scattering; remark: listed apart in the source
[7] = target: full-length NprR (B. thuringiensis strain 407); test: dynamic light scattering
[8] = target: full-length NprR (B. thuringiensis strain 407); test: SEC
[9] = target: full-length NprR (B. thuringiensis strain 407); test: SEC-MALS
[10] = target: full-length NprR (B. thuringiensis strain 407); test: dynamic light scattering; remark: listed apart in the source
[11] = target: NprR(ΔHTH)(Y223A/F225A) (B. thuringiensis strain 407); test: SEC
[12] = target: NprR(ΔHTH) (B. thuringiensis strain 407); test: ITC
[13] = target: NprR(ΔHTH)(R126A) (B. thuringiensis strain 407); test: ITC
[14] = target: NprR(ΔHTH)(N407A/Y410A) (B. thuringiensis strain 407); test: ITC
[15] = target: NprR(ΔHTH)(Y223A/F225A) (B. thuringiensis strain 407); test: ITC

With NprR(ΔHTH) (domain or fragment) the stoichiometry N [1] was 2, the stoichiometry N [2] was 2 and the stoichiometry N [3] was 2. For the same molecule, the stoichiometry N [4] was 4, the stoichiometry N [5] was 2 and the stoichiometry N [6] was 4.

For full-length NprR (natural protein), the stoichiometry N [7] was 2, the stoichiometry N [8] was 2 and the stoichiometry N [9] was 2. It also gave a stoichiometry N [10] of 4.

With “NprR(ΔHTH)(Y223A/F225A) (domain or fragment)” the stoichiometry N [11] was 2.

NprX7 heptapeptide SKPDIVG was tested, and the Kd [12] was 100 nM, the Kd [13] was 640 nM and the Kd [14] was 100 nM. The Kd [15] was 100 nM.

For NprX7 variant SKPDIVG-CO-NH (peptide), the Kd [12] was 5500 nM.

Molecule SSKPDIVG [NprX8n octapeptide SSKPDIVG] has a Kd [12] of 30 nM.

Work on YSSKPDIVG [NprX9n …] yielded a Kd [12] of 220 nM.

SKPDIVGQ [NprX8c SKPDIVGQ] showed a Kd [12] of 1000 nM.

SKPDTYG [NprX7-II (SKPDTYG)] was tested, and the Kd [12] was 400 nM.

WKPDTLG [NprX7 peptide (WKPDTLG) characteristic of groups V to VII] showed a Kd [12] of 3000 nM.

Work on SRPDVLT [NprX7-IV (SRPDVLT)] yielded a Kd [12] of 6000 nM.

With SNPDIYG [NprX7-III (SNPDIYG)] the Kd [12] was 80 nM.
